From the supplement of paper PMC5998384

How the values were obtained:
HeLa Kyoto [1] = assay: solubility change mitosis vs G1/S (difference of NP-40 vs SDS log2 ratios) (log2 ratio difference); higher = more soluble in mitosis
HeLa Kyoto [2] = assay: solubility in G1/S (NP-40 vs SDS abundance) (log2 ratio); higher = more soluble; settings: cell cycle stage: G1/S
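Wherever solubility change mitosis vs G1/S (difference of NP-40 vs SDS log2 ratios) is given: synchronized HeLa Kyoto cells (double thymidine block for G1/S, nocodazole release for mitosis), protein amounts in NP-40 versus SDS lysates quantified by mass spectrometry, three biological replicates.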
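Wherever solubility in G1/S (NP-40 vs SDS abundance) is given: HeLa Kyoto cells arrested at G1/S by double thymidine block, proteins quantified by TMT10plex mass spectrometry in mild NP-40 versus SDS extracts, three biological replicates.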

| Sequence | solubility change mitosis (log2) (HeLa Kyoto [1]) | solubility in G1/S (log2) (HeLa Kyoto [2]) |
| --- | --- | --- |
| MGSILSRRIAGVEDIDIQANSAYRYPPKSGNYFASHFFMGGEKFDTPHPEGYLFGENMDLNFLGSRPVQFPYVTPAPHEPVKTLRSLVNIRKDSLRLVRYKDDADSPTEDGDKPRVLYSLEFTFDADARVAITIYCQASEEFLNGRAVYSPKSPSLQSETVHYKRGVSQQFSLPSFKIDFSEWKDDELNFDLDRGVFPVVIQAVVDEGDVVEVTGHAHVLLAAFEKHMDGSFSVKPLKQKQIVDRVSYLLQEIYGIENKNNQETKPSDDENSDNSNECVVCLSDLRDTLILPCRHLCLCTSCADTLRYQANNCPICRLPFRALLQIRAVRKKPGALSPVSFSPVLAQSLEHDEHSCPFKKSKPHPASLASKKPKRETNSDSVPPGYEPISLLEALNGLRAVSPAIPSAPLYEEITYSGISDGLSQASCPLAAIDHILDSSRQKGRPQSKAPDSTLRSPSSPIHEEDEEKLSEDVDAPPPLGGAELALRESSSPESFITEEVDESSSPQQGTRAASIENVLQDSSPEHCGRGPPADIYLPALGPDSCSVGIDE [MGRN1] | 0.156 | -0.00834 |
| MGSRPPCGATSSARRACQFPAPMAAAREPELPQEAPATEPAPPPACRFFLEGRCRFGARCRQPHPGAPAPPGREAQPEAGAKKPPLRTAADVIQRIRWDPRLDPADFSVGYVDRFLGVREEPFSAFCWDQPLAALGPGVLAVPQHRVRFFRFHGRLVWDRASRTDLVFGSGSAAGRGPTILDAPNTEGAHGAEGAEWTLAGTGQEAQAAPKRGSTRPLCTGHQEPGVEEPGELEAAQERALGTAADLGTLAPRGRLAGVTEEALKPTAATRTTLLGGKEAQALGVPGGSAETTEAEWGPAAWPEDKRARLSVAAPCQPRPTHFVALMVTEPGLQAEVTKAQEYLVHVAPHCANFLVPSQNLHLTLALLRLAGAGEEAAAIGALRRALLAPGLNAPPRLSFRKLVLLGPHVLCAPPSPTLESMAQVLSQRLEAEGLSTLQSPGQLHPHLTVAKVPHGSQVHLPKLEFTLSQEVGCQPLQTLWLCRIGRTGGPFQPLAEIRLE [LENG9] | -0.034 | 0.366 |
| MGTIHLFRKPQRSFFGKLLREFRLVAADRRSWKILLFGVINLICTGFLLMWCSSTNSIALTAYTYLTIFDLFSLMTCLISYWVTLRKPSPVYSFGFERLEVLAVFASTVLAQLGALFILKESAERFLEQPEIHTGRLLVGTFVALCFNLFTMLSIRNKPFAYVSEAASTSWLQEHVADLSRSLCGIIPGLSSIFLPRMNPFVLIDLAGAFALCITYMLIEINNYFAVDTASAIAIALMTFGTMYPMSVYSGKVLLQTTPPHVIGQLDKLIREVSTLDGVLEVRNEHFWTLGFGSLAGSVHVRIRRDANEQMVLAHVTNRLYTLVSTLTVQIFKDDWIRPALLSGPVAANVLNFSDHHVIPMPLLKGTDDLNPVTSTPAKPSSPPPEFSFNTPGKNVNPVILLNTQTRPYGFGLNHGHTPYSSMLNQGLGVPGIGATQGLRTGFTNIPSRYGTNNRIGQPRP [SLC30A6] | -0.0121 | -0.097 |
| MIATPLKHSRIYLPPEASSQRRNLPMDAIFFDSIPSGTLTPVKDLVKYQNSSLKLNDHKKNQFLKMTTFNNKNIFQSTMLTEATTSNSSLDISAIKPNKDGLKNKANYESPGKIFLRMKEKVLRDKQEQPSRNSSLLEPQKSGNNETFTPNRVEKKKLQHTYLCEEKENNKSFQSDDSSLRASVQGVPLESSNNDIFLPVKQKIQCQQEKKAPLHNLTYELPTLNQEQENFLAVEARNKTLTRAQLAKQIFHSKESIVATTKSKKDTFVLESVDSADEQFQNTNAETLSTNCIPIKNGSLLMVSDSERTTEGTSQQKVKEGNGKTVPGETGLPGSMKDTCKIVLATPRLHITIPRRSKRNISKLSPPRIFQTVTNGLKKNQVVQLQEWMIKSINNNTAICVEGKLIDVTNIYWHSNVIIERIEHNKLRTISGNVYILKGMIDQISMKEAGYPNYLIRKFMFGFPENWKEHIDNFLEQLRAGEKNREKTKQKQKTGRSVRDIRKSMKNDARENQTDTAQRATTTYDFDCDNLELKSNKHSESPGATELNMCHSNCQNKPTLRFPDDQVNNTIQNGGGDDLSNQELIGKKEYKMSSKKLKIGERTNERIIKSQKQETTEELDVSIDILTSREQFFSDEERKYMAINQKKAYILVTPLKSRKVIEQRCMRYNLSAGTIKAVTDFVIPECQKKSPISKSMGTLENTFEGHKSKNKEDCDERDLLTVNRKIKISNLEKEQMLTSDFKKNTRLLPKLKKIENQVAMSFYKHQSSPDLSSEESETEKEIKRKAEVKKTKAGNTKEAVVHLRKSTRNTSNIPVILEPETEESENEFYIKQKKARPSVKETLQKSGVRKEFPITEAVGSDKTNRHPLECLPGLIQDKEWNEKELQKLHCAFASLPKHKPGFWSEVAAAVGSRSPEECQRKYMENPRGKGSQKHVTKKKPANSKGQNGKRGDADQKQTIKITAKVGTLKRKQQMREFLEQLPKDDHDDFFSTTPLQHQRILLPSFQDSEDDDDILPNMDKNPTTPSSVIFPLVKTPQCQHVSPGMLGSINRNDCDKYVFRMQKYHKSNGGIVWGNIKKKLVETDFSTPTPRRKTPFNTDLGENSGIGKLFTNAVESLDEEEKDYYFSNSDSA [MIS18BP1] | 1.22 | -1.77 |
| MIVFGWAVFLASRSLGQGLLLTLEEHIAHFLGTGGAATTMGNSCICRDDSGTDDSVDTQQQQAENSAVPTADTRSQPRDPVRPPRRGRGPHEPRRKKQNVDGLVLDTLAVIRTLVDNDQEPPYSMITLHEMAETDEGWLDVVQSLIRVIPLEDPLGPAVITLLLDECPLPTKDALQKLTEILNLNGEVACQDSSHPAKHRNTSAVLGCLAEKLAGPASIGLLSPGILEYLLQCLKLQSHPTVMLFALIALEKFAQTSENKLTISESSISDRLVTLESWANDPDYLKRQVGFCAQWSLDNLFLKEGRQLTYEKVNLSSIRAMLNSNDVSEYLKISPHGLEARCDASSFESVRCTFCVDAGVWYYEVTVVTSGVMQIGWATRDSKFLNHEGYGIGDDEYSCAYDGCRQLIWYNARSKPHIHPCWKEGDTVGFLLDLNEKQMIFFLNGNQLPPEKQVFSSTVSGFFAAASFMSYQQCEFNFGAKPFKYPPSMKFSTFNDYAFLTAEEKIILPRHRRLALLKQVSIRENCCSLCCDEVADTQLKPCGHSDLCMDCALQLETCPLCRKEIVSRIRQISHIS [RSPRY1] | -0.00113 | -0.235 |
| MKALIVLGLVLLSVTVQGKVFERCELARTLKRLGMDGYRGISLANWMCLAKWESGYNTRATNYNAGDRSTDYGIFQINSRYWCNDGKTPGAVNACHLSCSALLQDNIADAVACAKRVVRDPQGIRAWVAWRNRCQNRDVRQYVQGCGV [LYZ] | 2.19 | -1.78 |
| MKEMSANTVLDSQRQQKHYGITSPISLASPKEIDHIYTQKLIDAMKPFGVFEDEEELNHRLVVLGKLNNLVKEWISDVSESKNLPPSVVATVGGKIFTFGSYRLGVHTKGADIDALCVAPRHVERSDFFQSFFEKLKHQDGIRNLRAVEDAFVPVIKFEFDGIEIDLVFARLAIQTISDNLDLRDDSRLRSLDIRCIRSLNGCRVTDEILHLVPNKETFRLTLRAVKLWAKRRGIYSNMLGFLGGVSWAMLVARTCQLYPNAAASTLVHKFFLVFSKWEWPNPVLLKQPEESNLNLPVWDPRVNPSDRYHLMPIITPAYPQQNSTYNVSTSTRTVMVEEFKQGLAVTDEILQGKSDWSKLLEPPNFFQKYRHYIVLTASASTEENHLEWVGLVESKIRVLVGNLERNEFITLAHVNPQSFPGNKEHHKDNNYVSMWFLGIIFRRVENAESVNIDLTYDIQSFTDTVYRQANNINMLKEGMKIEATHVKKKQLHHYLPAEILQKKKKQSLSDVNRSSGGLQSKRLSLDSSCLDSSRDTDNGTPFNSPASKSDSPSVGETERNSAEPAAVIVEKPLSVPPAQGLSIPVIGAKVDSTVKTVSPPTVCTIPTVVGRNVIPRITTPHNPAQGQPHLNGMSNITKTVTPKRSHSPSIDGTPKRLKDVEKFIRLESTFKDPRTAEERKRKSVDAIGGESMPIPTIDTSRKKRLPSKELPDSSSPVPANNIRVIKNSIRLTLNR [PAPOLG] | -0.0762 | -0.0339 |
| MKFAYRFSNLLGTVYRRGNLNFTCDGNSVISPVGNRVTVFDLKNNKSDTLPLATRYNVKCVGLSPDGRLAIIVDEGGDALLVSLVCRSVLHHFHFKGSVHSVSFSPDGRKFVVTKGNIAQMYHAPGKKREFNAFVLDKTYFGPYDETTCIDWTDDSRCFVVGSKDMSTWVFGAERWDNLIYYALGGHKDAIVACFFESNSLDLYSLSQDGVLCMWQCDTPPEGLRLKPPAGWKADLLQREEEEEEEEDQEGDRETTIRGKATPAEEEKTGKVKYSRLAKYFFNKEGDFNNLTAAAFHKKSHLLVTGFASGIFHLHELPEFNLIHSLSISDQSIASVAINSSGDWIAFGCSGLGQLLVWEWQSESYVLKQQGHFNSMVALAYSPDGQYIVTGGDDGKVKVWNTLSGFCFVTFTEHSSGVTGVTFTATGYVVVTSSMDGTVRAFDLHRYRNFRTFTSPRPTQFSCVAVDASGEIVSAGAQDSFEIFVWSMQTGRLLDVLSGHEGPISGLCFNPMKSVLASASWDKTVRLWDMFDSWRTKETLALTSDALAVTFRPDGAELAVATLNSQITFWDPENAVQTGSIEGRHDLKTGRKELDKITAKHAAKGKAFTALCYSADGHSILAGGMSKFVCIYHVREQILMKRFEISCNLSLDAMEEFLNRRKMTEFGNLALIDQDAGQEDGVAIPLPGVRKGDMSSRHFKPEIRVTSLRFSPTGRCWAATTTEGLLIYSLDTRVLFDPFELDTSVTPGRVREALRQQDFTRAILMALRLNESKLVQEALEAVPRGEIEVVTSSLPELYVEKVLEFLASSFEVSRHLEFYLLWTHKLLMLHGQKLKSRAGTLLPVIQFLQKSIQRHLDDLSKLCSWNHYNMQYALAVSKQRGTKRSLDPLGSEEEAEASEDDSLHLLGGGGRDSEEEMLA [PWP2] | 0.632 | -1.72 |
| MKGGNADSWQREKLASMESPEEPGASMDENYFVNYTFKDRSHSGRVAQGIMKLCLEEELFADVTISVEGREFQLHRLVLSAQSCFFRSMFTSNLKEAHNRVIVLQDVSESVFQLLVDYIYHGTVKLRAEELQEIYEVSDMYQLTSLFEECSRFLARTVQVGNCLQVMWLADRHSDPELYTAAKHCAKTHLAQLQNTEEFLHLPHRLLTDIISDGVPCSQNPTEAIEAWINFNKEEREAFAESLRTSLKEIGENVHIYLIGKESSRTHSLAVSLHCAEDDSISVSGQNSLCHQITAACKHGGDLYVVGGSIPRRMWKCNNATVDWEWCAPLPRDRLQHTLVSVPGKDAIYSLGGKTLQDTLSNAVIYYRVGDNVWTETTQLEVAVSGAAGANLNGIIYLLGGEENDLDFFTKPSRLIQCFDTETDKCHVKPYVLPFAGRMHAAVHKDLVFIVAEGDSLVCYNPLLDSFTRLCLPEAWSSAPSLWKIASCNGSIYVFRDRYKKGDANTYKLDPATSAVTVTRGIKVLLTNLQFVLA [KBTBD4] | -0.161 | -0.0904 |
| MKLHCEVEVISRHLPALGLRNRGKGVRAVLSLCQQTSRSQPPVRAFLLISTLKDKRGTRYELRENIEQFFTKFVDEGKATVRLKEPPVDICLSKAISSSLKGFLSAMRLAHRGCNVDTPVSTLTPVKTSEFENFKTKMVITSKKDYPLSKNFPYSLEHLQTSYCGLVRVDMRMLCLKSLRKLDLSHNHIKKLPATIGDLIHLQELNLNDNHLESFSVALCHSTLQKSLRSLDLSKNKIKALPVQFCQLQELKNLKLDDNELIQFPCKIGQLINLRFLSAARNKLPFLPSEFRNLSLEYLDLFGNTFEQPKVLPVIKLQAPLTLLESSARTILHNRIPYGSHIIPFHLCQDLDTAKICVCGRFCLNSFIQGTTTMNLHSVAHTVVLVDNLGGTEAPIISYFCSLGCYVNSSDMLK [PPIL5] | -0.0159 | -0.0487 |
